According to patent publication US20220332804A1 (CSL INNOVATION, published 2022):
Changes are numbered by the printed parent chain.

Legend:
Test in all cases: SPR, antibody captured, C2 as analyte;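 further: biacore at 37 °C, anti-C2 mAbs held by immobilised goat anti-human IgG, C2 alanine or serine mutants injected, double-referenced sensorgrams fitted to a 1:1 kinetic or steady-state model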
[1] = biological target: T1, human C2 K443A (human, UniProt P06681 21-752)
T1 sequence: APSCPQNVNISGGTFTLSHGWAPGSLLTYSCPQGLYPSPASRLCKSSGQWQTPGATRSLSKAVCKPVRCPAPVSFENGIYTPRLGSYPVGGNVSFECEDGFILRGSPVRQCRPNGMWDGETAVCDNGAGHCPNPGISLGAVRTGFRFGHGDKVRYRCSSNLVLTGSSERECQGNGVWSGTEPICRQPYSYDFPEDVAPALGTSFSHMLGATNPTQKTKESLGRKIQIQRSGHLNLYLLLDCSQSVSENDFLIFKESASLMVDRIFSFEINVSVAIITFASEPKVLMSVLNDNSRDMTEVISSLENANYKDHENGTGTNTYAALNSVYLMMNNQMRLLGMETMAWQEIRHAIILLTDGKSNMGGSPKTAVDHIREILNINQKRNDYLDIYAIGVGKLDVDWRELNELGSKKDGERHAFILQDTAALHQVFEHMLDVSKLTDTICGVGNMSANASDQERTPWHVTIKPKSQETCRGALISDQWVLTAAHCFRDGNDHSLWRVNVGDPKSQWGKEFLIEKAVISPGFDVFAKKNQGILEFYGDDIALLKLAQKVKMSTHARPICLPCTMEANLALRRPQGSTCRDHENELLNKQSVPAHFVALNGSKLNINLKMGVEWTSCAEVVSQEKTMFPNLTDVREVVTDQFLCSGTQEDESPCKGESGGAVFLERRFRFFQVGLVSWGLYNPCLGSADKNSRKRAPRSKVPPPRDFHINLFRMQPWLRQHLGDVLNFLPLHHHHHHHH

[2] = biological target: T2, human C2 A470S (human, UniProt P06681 21-752)
T2 sequence: T1 sequence with A423K, A450S

[3] = biological target: T3, human C2 H451A (human, UniProt P06681 21-752)
T3 sequence: T1 sequence with A423K, H431A

[4] = biological target: T4, human C2 T317A (human, UniProt P06681 21-752)
T4 sequence: T1 sequence with T297A, A423K

B1: RF16-242 (antibody, human IgG4 S228P, lambda, V domains shown)
VH: EVQLLQSGAEVKKPGESLKISCKGSGYSFTSYWIGWVRQMPGKGLEWMGIIYPGDSDTRYSPSFQGQVTISADKSISTAYLQWSSLKASDTAMYYCARRGHYGDYFDYWGQGTLVTVSS
VL: SYELTQPPSVSVSPGQTARITCSGDALPKKYAYWYHQKSGQAPVLVIYEDRRRPSEIPERFSGSSSGTMATLTITGAQVEDEGVYFCYSRDRAGNQRVFGGGTQLTVLG
notes: pH-dependent anti-C2 antibody from a phage display library
B1 was tested, and the binding result [1] was “no binding”, the Kd [2] was 5 nM and the Kd [3] was 21.3 nM. It also gave a Kd [4] of 5.9 nM.
